Experimental data reported in patent US20050064507A1, “Determining kinase specificity” (priority 2003, published 2005).

Experiments:
Assay type in all cases: biochemical
[1] = biological target: T1, PKC-epsilon (Homo sapiens, UniProt Q02156); experiment: In vitro kinase assay: peptide phosphorylation by PKC-epsilon; conditions: for phosphorylation by PKC epsilon: peptide concentration 1 uM; for PKC-epsilon phosphorylation: normalized to best substrate
T1 construct: purchased Calbiochem
T1 sequence (Q02156 1-737): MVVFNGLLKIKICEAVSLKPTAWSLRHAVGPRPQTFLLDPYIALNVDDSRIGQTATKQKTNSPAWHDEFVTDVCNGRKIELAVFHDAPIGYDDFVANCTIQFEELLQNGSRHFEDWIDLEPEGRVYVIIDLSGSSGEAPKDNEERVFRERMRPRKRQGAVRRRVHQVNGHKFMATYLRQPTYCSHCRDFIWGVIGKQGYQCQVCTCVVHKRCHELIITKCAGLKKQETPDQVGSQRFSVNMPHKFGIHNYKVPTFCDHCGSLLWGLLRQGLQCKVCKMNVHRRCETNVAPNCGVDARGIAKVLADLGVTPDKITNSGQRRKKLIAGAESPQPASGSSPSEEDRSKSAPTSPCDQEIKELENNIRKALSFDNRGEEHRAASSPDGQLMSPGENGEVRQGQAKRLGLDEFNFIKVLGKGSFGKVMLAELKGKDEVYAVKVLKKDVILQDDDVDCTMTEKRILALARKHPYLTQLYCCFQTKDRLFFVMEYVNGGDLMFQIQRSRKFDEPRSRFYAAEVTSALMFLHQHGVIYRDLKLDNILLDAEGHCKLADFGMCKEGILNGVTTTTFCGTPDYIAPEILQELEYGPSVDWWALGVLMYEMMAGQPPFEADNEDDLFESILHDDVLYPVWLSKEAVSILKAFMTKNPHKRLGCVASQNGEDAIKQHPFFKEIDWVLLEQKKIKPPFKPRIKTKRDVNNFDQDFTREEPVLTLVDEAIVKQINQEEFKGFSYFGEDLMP
Protocol: (§1) Catalytically active preparations of the kinases of interest were either purchased or prepared. Purchased and tested active kinase preparations including the following: PKC-alpha, PKC-delta, PKC-epsilon, PKC-zeta, PKC-mu, PKA, PKG from Calbiochem, ROK alpha/ROCK-II, active from Upstate Biotechnology, and AKT1 from Panvera.
(§2) The conditions of the kinase assay and the amount of active kinase used varied with the kinase and with the accuracy needed. For a typical experiment, 5-20 ng of kinase was used per well and each peptide pool was assayed in duplicate wells. Note that the absolute amount of kinase used was not usually a critical parameter, because the desired information related to specificity of the kinase not its absolute activity, and robustness of the assay depends on comparisons of the same amount of kinase on different peptides. The combination of kinase concentration and assay duration was modified to assure that the stoichiometry of peptide phosphorylation never exceeded 5%. The choice of kinase buffer depended on the kinase being analyzed. For studies of PKC, 100 mM HEPES, 0.05% Triton-X100, 1 mM CaCl2, 20 mM MgCl2, 0.2 mg/ml phosphatidyl serine (Avanti Polar Lipids), PMA 100 ng/ml was typically used. The lipid stock was prepared by transferring 3 mg phosphatidyl serine into iced mixture of 450 μl water plus 50 μl of 10% Triton-X100, sonicating 10 times on ice for 1 sec each.
(§3) The kinase reaction mixture was assembled by sequential addition to a tube held on ice of: 5 μl peptide (100 μM for final concentration of 10 μM), 15 μl of kinase (typically 5 ng/well, in appropriate kinase buffer), 30 μl of ATP (1 uCi/well of ^32P-gamma ATP in a stock of 167 μM cold ATP in the kinase buffer; for final concentration for 100 μM ATP). The mixture was rapidly warmed to desired reaction temperature (30° C. for PKC) and incubated for the desired duration (usually 10 minutes). The kinase assay was terminated by transfer to 4° C. water batch, and rapid addition of an equal volume (50 μl) of stop solution [0.1M ATP+0.1M EDTA in water, pH 8].
(§4) The peptides were then captured from the reaction mixture by transfer to a Reacti-Bind Streptavidin High Binding Capacity Coated Plates (HBC) (Pierce Biotechnology) as follows. The HBC plates were pre-rinsed three times with PBS/Tween PBS/Tween20 0.05% (PBS/Tween). Part of all of the reaction mixture was then transferred wells of a HBC plate pre-filled with 90 μl of phosphate-buffered saline (PBS); typically each aliquots of each phosphorylation reaction were transferred to duplicate HBC plates to assure accuracy by additional replication
(§5) For kinase assays done at the standard peptide concentration of 10 μM, the peptide concentration in the reaction mixture becomes 5 μM after addition of the stop solution; consequently 10 μl of the reaction (50 pMoles of peptide) was transferred to the HBC plate. More generally, the amount of reaction mixture transferred was estimated to be about 50 pMoles of peptide. […] The HBC plates were incubated for 0.5 to 1.5 hr at room temperature for complete binding of biotinylated peptides to plate-bound streptavidin. The HBC plates were then washed extensively with PBS/Tween. Five washes were done routinely and additional wash steps were added if the wash solution removed from the plate had measurable radioactivity as detected using a Geiger counter. This step is essential to obtaining a good the signal to noise ratio because the fraction of radioactivity incorporated in the peptides was a tiny fraction of the total in the reaction mixture. The wells were air-dried. A volume of 40-50 μl of microScint-20 (Packard Instruments) was added to each well. The plates were covered with stick-on film sheet. Radioactive emissions were measured in a TopCount NXT Microplate Scintillation and Luminescence Counter (Packard Instruments). Typically samples were counted for 5 minutes (or more) to improve the signal to noise ratio when counts were low. […]

[2] = tested on: PKC; experiment: In vitro phosphorylation by PKC (average of isoforms alpha, epsilon, delta, theta); conditions: for average (phosphorylation by PKC-theta, -delta, -epsilon, -alpha): average over PKC-theta, -epsilon and -alpha at 10 and 1 uM peptide, relative to best substrate; for PKC average: average of PKC-alpha, -epsilon, -theta, normalized to best substrate
Protocol: as §2, §3, §4
For kinase assays done at the standard peptide concentration of 10 μM, the peptide concentration in the reaction mixture becomes 5 μM after addition of the stop solution; consequently 10 μl of the reaction (50 pMoles of peptide) was transferred to the HBC plate. More generally, the amount of reaction mixture transferred was estimated to be about 50 pMoles of peptide. […] The HBC plates were incubated for 0.5 to 1.5 hr at room temperature for complete binding of biotinylated peptides to plate-bound streptavidin. The HBC plates were then washed extensively with PBS/Tween. Five washes were done routinely and additional wash steps were added if the wash solution removed from the plate had measurable radioactivity as detected using a Geiger counter. This step is essential to obtaining a good the signal to noise ratio because the fraction of radioactivity incorporated in the peptides was a tiny fraction of the total in the reaction mixture. The wells were air-dried. A volume of 40-50 μl of microScint-20 (Packard Instruments) was added to each well. The plates were covered with stick-on film sheet. Radioactive emissions were measured in a TopCount NXT Microplate Scintillation and Luminescence Counter (Packard Instruments). Typically samples were counted for 5 minutes (or more) to improve the signal to noise ratio when counts were low.
Many peptides that are good substrates for PKC enzymes were identified using the methods of the invention. For example, Tables 4 and 5 provide a listing of peptides identified as potentially useful kinase substrates. […]

[3] = biological target: T2, PKC-alpha (Homo sapiens, UniProt P17252); experiment: In vitro kinase assay: peptide phosphorylation by PKC-alpha; conditions: for PKC alpha phosphorylation: normalized to best substrate
T2 construct: purchased Calbiochem
Protocol: as §1, §2, §3, §4, §5

Substance | phosphorylation by PKC epsilon [1] | average (phosphorylation by PKC-theta, -delta, -epsilon, -alpha) [2] | phosphorylation by PKC alpha ([3]; peptide concentration 1 uM) | phosphorylation by PKC alpha ([3]; peptide concentration 10 uM) | PKC-epsilon phosphorylation [1] [%] | PKC average [2] [%] | PKC alpha phosphorylation [3] [%]
140 (TELEGGFSRQRKRKLSFRRR) [compound 140] | 27 | 30 | 12 | 15 |  |  | 
161 (KYKAFIRIPIPTRRHTFRRQ) [compound 161] | 21 | 18 | 22 | 8 |  |  | 
109 (KEVVRTDSLKGRRGR) [compound 109] |  |  |  |  | 26 | 16 | 21
83 (RKIPKRPGSVHRTPSRQ) [compound 83] |  |  |  |  | 47 | 55 | 41
157 (PSPSNETPKKKKKRFSFKKS) [compound 157] | 12 | 20 | 10 | 11 |  |  | 
131 (WKGKRRSKARKKRK) [compound 131] | 43 | 38 | 49 | 22 |  |  | 
138 (EYLERRASRRRAV) [compound 138] | 27 | 31 | 17 | 20 |  |  | 
146 (QAQRQIKRGAPPRRSSIRNA) [compound 146] | 28 | 27 | 20 | 24 |  |  | 
104 (EKIKRSSLKKVDSLKK) [compound 104] |  |  |  |  | 17 | 22 | 34
133 (LEKRGMLGKRPRRKSSRRKK) [compound 133] | 31 | 37 | 17 | 16 |  |  | 
96 (RGFLRSASLGRRASFHLE) [compound 96] |  |  |  |  | 41 | 33 | 40
142 (ERHVAQKKSRLRRRASQLKI) [compound 142] | 28 | 28 | 16 | 21 |  |  | 
159 (LYARLARAYRRSQRASFKRA) [compound 159] | 25 | 19 | 21 | 19 |  |  | 
103 (LLKKRDSFRTPRDSKLE) [compound 103] |  |  |  |  | 21 | 22 | 32
125 (PLKEKKRERKTSSKSSVRKR) [compound 125] | 48 | 48 | 34 | 31 |  |  | 
114 (KKKKRASFKRKSSKKG) [compound 114] | 100 | 95 | 100 | 100 |  |  | 
95 (KKKFRTPSFLKKSKK) [compound 95] |  |  |  |  | 31 | 33 | 34
93 (AARKKRISVKKKQEQ) [compound 93] |  |  |  |  | 40 | 37 | 34
108 (KATTKKRTLRKNDRK) [compound 108] |  |  |  |  | 8 | 16 | 19
143 (VRYTPYTISPYNRKGSFRKQ) [compound 143] | 21 | 28 | 38 | 19 |  |  | 
76 (HVRRRRGTFKRSKLRARD) [compound 76] |  |  |  |  | 100 | 91 | 62
79 (NRKKKRTSFKRKA) [compound 79] |  |  |  |  | 92 | 60 | 50
120 (AKRRRLSSLRASTSK) [compound 120] | 56 | 52 | 55 | 58 |  |  | 
132 (GFLNEPLSSKSQRRKSLKLK) [compound 132] | 47 | 38 | 24 | 30 |  |  | 
78 (KFARKSTRRSIRLPE) [compound 78] |  |  |  |  | 84 | 63 | 69
102 (AGSFKRNSIKKIV) [compound 102] |  |  |  |  | 14 | 23 | 35
127 (SQVQKQRSAGSFKRNSIKKI) [compound 127] | 32 | 43 | 40 | 39 |  |  | 
156 (SAQITIPKDGQKRKKSLRKK) [compound 156] | 18 | 20 | 9 | 11 |  |  | 
